Experimental data taken from patent publication US20220017635A1 (Kyowa Kirin, published 2022).
Each block holds one binder with its values, some of them ahead of it.

Tests used:
[1] = biological target: T1, human EGFR on cells (human, UniProt P00533 25-1210); test: flow cytometry on OE21 cells; x axis Alexa Fluor 488-A [C]
T1 construct: also called membrane-associated EGFR on OE21 cells

[2] = biological target: T2, human EGFR-FLAG-Fc (human, UniProt P00533 25-638); test: phage ELISA (scFv) on immobilized human EGFR-Fc
T2 construct: also called human EGFR-Fc
Description: Specifically, it was carried out by adding a phage solution diluted with PBS-T containing 10% Block Ace (manufactured by Dainippon Pharmaceutical Co., Ltd.) to a 96-well immunoplate (NUNC, Inc.) on which an antigen protein was immobilized to allow a reaction to proceed at room temperature for 1 hour, followed by washing with PBS-T, and then, adding an anti-M13 antibody (manufactured by GE Healthcare, Inc.) labeled with horseradish peroxidase diluted with 1% BSA-PBS thereto to allow a reaction to proceed at room temperature for 1 hour.
The confirmation of a clone that specifically recognizes human and monkey EGFR-Fc was carried out by the ELISA method.

[3] = biological target: T3, monkey EGFR-FLAG-Fc (monkey, UniProt P55245 25-638); test: phage ELISA (scFv) on immobilized monkey EGFR-Fc
T3 construct: also called monkey EGFR-Fc; not shown: FLAG-Fc added to the C terminus

[4] = biological target: T1, human EGFR on cells; test: flow cytometry on OE21 cells; x axis PE-A [D]
[5] = biological target: T2, human EGFR-FLAG-Fc; test: phage ELISA on immobilized EGFR-Fc (Example 5)

binding result [1]: binds | binding result [2]: binds | binding result [3]: binds
B1: E17 (antibody, V domains shown)
VH: QVQLQQWGAGLLKPSETLSLTCALYSGSFSAQDWSWIRQSPEKGLEWIGEIWQGGKTNYNPSLKSRVSISRDNSKNQLSLQLSSVTAADTAVYYCARVDWSYRVFEIWGQGTMVTVSS
VL: not shown
notes: also called anti-EGFR antibody E17

binding result [4]: binds
B2: KME07 (antibody, V domains shown)
VH: QVQLVQSGAEVKKPGSSVKVSCKASGGTFSSFAFGWVRQAPGQGLEWMGEVRPGFGTEILTQNFQDRVTITADESTSTTYMELRSLKSEDTAVYYCARGLLRGGYIENPFEIWGQGTLVTVSS
VL: DIQMTQSPSSLSASVGDRVTITCRASQGISSWLAWYQQKPEKAPKSLIYAASSLQSGVPSRFSGSGSGTDFTLTISSLQPEDFATYFCQQYYNYPYTFGQGTKLEIK
notes: IgG4PE or IgG4PE R409K; also called anti-EGFR antibody KME07

binding result [5]: binds
B3: KME11 (antibody, V domains shown)
VH: QVQLVQSGAEVKKPGSSVKVSCKASGGTLSTYGITWVRQAPGQGFAWMGEIIPSLGIVNYAQKFQGRVTITADESTSTVYMELSSVTYEDTAVYYCAGDELSEGHSEYYHGMDVWGQGTTVTVSS
VL: DIQMTQSPSSLSASVGDRVTITCRASQGISSWLAWYQQKPEKAPKSLIYAASSLQSGVPSRFSGSGSGTDFTLTISSLQPEDFATYFCQQYYNYPYTFGQGTKLEIK
notes: IgG4PE or IgG4PE R409K; also called anti-EGFR antibody KME11; KME1l
